B1: scFv; the commonest letter at each place (parent)
chain 1: EVKLDETGGGLVQPGRPMKLSCVASGFTFSDYWMNWVRQSPEKGLEWVAQIRNKPYNYETYYSDSVKGRFTISRDDSKSSVYLQMNNLRVEDMGIYYCTGSYYGMDYWGQGTSVTVS
chain 2: DVVMTQTPLSLPVSLGDQASISCRSSQSLVHSNGNTYLRWYLQKPGQSPKVLIYKVSNRFSGVPDRFSGSGSGTDFTLKISRVEAEDLGVYFCSQSTHVPWTFGGGTKLEIK

In series [1] the parent is B1. Put plainly: Kd (Tite-Seq). The settings on record: with fluorescein; format: scFv 4-4-20, heavy + light.
Variants of B1 are the subject of series [2]. Briefly: yeast surface expression (ratio to wild type); higher = more expressed. The following applies: format: scFv 4-4-20, heavy + light.

Some results are limits rather than exact numbers.

Broadly, the Kd is a measure of binding affinity in units of concentration.

On to chain 1 EVKLDETGGGLVQPGRPMKLSCVASGFTFSDYWMNWVRQSPEKGLEWVAQIRNKPYNYETYYSDSVKGRFTISRDDSKSSVYLQMNNLRVEDMGIYYCTGSYYGMDYWKQGTSVTVS chain 2 DVVMTQTPLSLPVSLGDQASISCRSSQSLVHSNGNTYLRWYLQKPGQSPKVLIYKVSNRFSGVPDRFSGSGSGTDFTLKISRVEAEDLGVYFCSQSTHVPWTFGGGTKLEIK [chain 1 G109K], for which, in series [1], the Kd is not below 10 µM. Moreover, the yeast surface expression in series [2] stood at 0.229.

chain 1 EVKLDETGGGLVQPGRPMKLSCVASGFTFSDYWMNWVRQSPEKGLEWVAQIRNKPYNYETYYSDSVKGRFTISRDDSKSSVYLQMNNLRVEDMGIYYCTGSYYGMDYWSQGTSVTVS chain 2 DVVMTQTPLSLPVSLGDQASISCRSSQSLVHSNGNTYLRWYLQKPGQSPKVLIYKVSNRFSGVPDRFSGSGSGTDFTLKISRVEAEDLGVYFCSQSTHVPWTFGGGTKLEIK [chain 1 G109S]: the Kd in series [1] stood at 0.00361 µM. Also, the yeast surface expression in series [2] stood at 0.826.

As to chain 1 EVKLDETGGGLVQPGRPMKLSCVASGFTFSDYWMNWVRQSPEKGLEWVAQIRNKPYNYETYYSDSVKGRFTISRDDSKSSVYLQMNNLRVEDMGIYYCTGSYYGMDYWTQGTSVTVS chain 2 DVVMTQTPLSLPVSLGDQASISCRSSQSLVHSNGNTYLRWYLQKPGQSPKVLIYKVSNRFSGVPDRFSGSGSGTDFTLKISRVEAEDLGVYFCSQSTHVPWTFGGGTKLEIK [chain 1 G109T], the Kd in series [1] is not below 10 µM. The yeast surface expression in series [2] is 0.551.

In the case of chain 1 EVKLDETGGGLVQPGRPMKLSCVASGFTFSDYWMNWVRQSPEKGLEWVAQIRNKPYNYETYYSDSVKGRFTISRDDSKSSVYLQMNNLRVEDMGIYYCTGSYYGMDYWNQGTSVTVS chain 2 DVVMTQTPLSLPVSLGDQASISCRSSQSLVHSNGNTYLRWYLQKPGQSPKVLIYKVSNRFSGVPDRFSGSGSGTDFTLKISRVEAEDLGVYFCSQSTHVPWTFGGGTKLEIK [chain 1 G109N], the Kd in series [1] is not below 10 µM. For the same variant, the yeast surface expression in series [2] amounted to 0.622.

For chain 1 EVKLDETGGGLVQPGRPMKLSCVASGFTFSDYWMNWVRQSPEKGLEWVAQIRNKPYNYETYYSDSVKGRFTISRDDSKSSVYLQMNNLRVEDMGIYYCTGSYYGMDYWVQGTSVTVS chain 2 DVVMTQTPLSLPVSLGDQASISCRSSQSLVHSNGNTYLRWYLQKPGQSPKVLIYKVSNRFSGVPDRFSGSGSGTDFTLKISRVEAEDLGVYFCSQSTHVPWTFGGGTKLEIK [chain 1 G109V], the equilibrium dissociation constant (Kd) in series [1] is not below 10 µM. For the same variant, in series [2], the yeast surface expression is 0.34.

On to chain 1 EVKLDETGGGLVQPGRPMKLSCVASGFTFSDYWMNWVRQSPEKGLEWVAQIRNKPYNYETYYSDSVKGRFTISRDDSKSSVYLQMNNLRVEDMGIYYCTGSYYGMDYWQQGTSVTVS chain 2 DVVMTQTPLSLPVSLGDQASISCRSSQSLVHSNGNTYLRWYLQKPGQSPKVLIYKVSNRFSGVPDRFSGSGSGTDFTLKISRVEAEDLGVYFCSQSTHVPWTFGGGTKLEIK [chain 1 G109Q], for which the equilibrium dissociation constant (Kd) in series [1] is not below 10 µM. Further, in series [2], the yeast surface expression is 0.391.

chain 1 EVKLDETGGGLVQPGRPMKLSCVASGFTFSDYWMNWVRQSPEKGLEWVAQIRNKPYNYETYYSDSVKGRFTISRDDSKSSVYLQMNNLRVEDMGIYYCTGSYYGMDYWMQGTSVTVS chain 2 DVVMTQTPLSLPVSLGDQASISCRSSQSLVHSNGNTYLRWYLQKPGQSPKVLIYKVSNRFSGVPDRFSGSGSGTDFTLKISRVEAEDLGVYFCSQSTHVPWTFGGGTKLEIK [chain 1 G109M]: the Kd in series [1] was not below 10 µM. Besides, the yeast surface expression in series [2] amounted to 0.213.

Take chain 1 EVKLDETGGGLVQPGRPMKLSCVASGFTFSDYWMNWVRQSPEKGLEWVAQIRNKPYNYETYYSDSVKGRFTISRDDSKSSVYLQMNNLRVEDMGIYYCTGSYYGMDYWWQGTSVTVS chain 2 DVVMTQTPLSLPVSLGDQASISCRSSQSLVHSNGNTYLRWYLQKPGQSPKVLIYKVSNRFSGVPDRFSGSGSGTDFTLKISRVEAEDLGVYFCSQSTHVPWTFGGGTKLEIK [chain 1 G109W]: in series [1], the Kd was not below 10 µM. The yeast surface expression in series [2] stood at 0.217.

As for chain 1 EVKLDETGGGLVQPGRPMKLSCVASGFTFSDYWMNWVRQSPEKGLEWVAQIRNKPYNYETYYSDSVKGRFTISRDDSKSSVYLQMNNLRVEDMGIYYCTGSYYGMDYWRQGTSVTVS chain 2 DVVMTQTPLSLPVSLGDQASISCRSSQSLVHSNGNTYLRWYLQKPGQSPKVLIYKVSNRFSGVPDRFSGSGSGTDFTLKISRVEAEDLGVYFCSQSTHVPWTFGGGTKLEIK [chain 1 G109R], the Kd in series [1] is not below 10 µM. Further, in series [2], the yeast surface expression came to 0.297.

Regarding chain 1 EVKLDETGGGLVQPGRPMKLSCVASGFTFSDYWMNWVRQSPEKGLEWVAQIRNKPYNYETYYSDSVKGRFTISRDDSKSSVYLQMNNLRVEDMGIYYCTGSYYGMDYWPQGTSVTVS chain 2 DVVMTQTPLSLPVSLGDQASISCRSSQSLVHSNGNTYLRWYLQKPGQSPKVLIYKVSNRFSGVPDRFSGSGSGTDFTLKISRVEAEDLGVYFCSQSTHVPWTFGGGTKLEIK [chain 1 G109P], the Kd in series [1] was not below 10 µM. Moreover, the yeast surface expression in series [2] amounted to 0.312.

For the variant chain 1 EVKLDETGGGLVQPGRPMKLSCVASGFTFSDYWMNWVRQSPEKGLEWVAQIRNKPYNYETYYSDSVKGRFTISRDDSKSSVYLQMNNLRVEDMGIYYCTGSYYGMDYWIQGTSVTVS chain 2 DVVMTQTPLSLPVSLGDQASISCRSSQSLVHSNGNTYLRWYLQKPGQSPKVLIYKVSNRFSGVPDRFSGSGSGTDFTLKISRVEAEDLGVYFCSQSTHVPWTFGGGTKLEIK [chain 1 G109I], in series [1], the Kd is not below 10 µM. Further, the yeast surface expression in series [2] is 0.269.

On to chain 1 EVKLDETGGGLVQPGRPMKLSCVASGFTFSDYWMNWVRQSPEKGLEWVAQIRNKPYNYETYYSDSVKGRFTISRDDSKSSVYLQMNNLRVEDMGIYYCTGSYYGMDYWLQGTSVTVS chain 2 DVVMTQTPLSLPVSLGDQASISCRSSQSLVHSNGNTYLRWYLQKPGQSPKVLIYKVSNRFSGVPDRFSGSGSGTDFTLKISRVEAEDLGVYFCSQSTHVPWTFGGGTKLEIK [chain 1 G109L], for which the Kd in series [1] is not below 10 µM. For the same variant, the yeast surface expression in series [2] came out at 0.217.

(Values after the FLAb antibody collection (doi:10.7554/elife.23156).)
